Legend:
[1] = target: T1, APNPCP, CP of an uncharacterized NRP/PK gene cluster from Anabaena
T1 chain: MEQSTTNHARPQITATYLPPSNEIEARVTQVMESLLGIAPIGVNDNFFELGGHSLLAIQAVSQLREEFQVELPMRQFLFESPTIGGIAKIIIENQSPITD

[2] = target: AprACP, ACP of the apratoxin (PK/NRP) gene cluster in Lyngbya sp.
[3] = target: T2, MACP, CP of an uncharacterized NRP/PK gene cluster from M. aeruginosa NIES843
T2 chain: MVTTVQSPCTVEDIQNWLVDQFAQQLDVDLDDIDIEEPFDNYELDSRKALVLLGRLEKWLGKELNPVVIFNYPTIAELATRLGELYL

[4] = target: T3, SFACP, ACP of the FAS from Synechocystis
T3 chain: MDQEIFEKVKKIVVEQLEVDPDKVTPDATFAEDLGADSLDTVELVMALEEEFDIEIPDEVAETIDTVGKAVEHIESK

[5] = target: T4, FNPCP, CP of an uncharacterized NRP gene cluster from Fischerella
T4 chain: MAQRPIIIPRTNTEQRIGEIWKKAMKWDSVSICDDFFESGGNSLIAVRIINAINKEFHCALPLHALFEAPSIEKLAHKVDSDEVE

[6] = target: ScACP, ACP of a putative concanamycin gene cluster from Streptomyces coelicolor A(3)2
[7] = target: T5, FNsACP, homolog of ArCPNp from Fischerella
T5 chain: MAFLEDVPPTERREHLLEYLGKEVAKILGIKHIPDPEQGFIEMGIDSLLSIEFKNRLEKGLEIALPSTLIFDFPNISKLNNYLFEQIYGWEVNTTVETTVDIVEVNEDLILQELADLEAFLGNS

[8] = target: T6, FisPCP, PCP of the shinorine gene cluster from Fischerella
T6 chain: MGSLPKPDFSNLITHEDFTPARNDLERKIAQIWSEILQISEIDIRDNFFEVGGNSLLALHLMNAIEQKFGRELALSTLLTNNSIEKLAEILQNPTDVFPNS

[9] = target: T7, SsPCP, PCP of a thaxtomin cluster from Streptomyces scabiei 87.22
T7 chain: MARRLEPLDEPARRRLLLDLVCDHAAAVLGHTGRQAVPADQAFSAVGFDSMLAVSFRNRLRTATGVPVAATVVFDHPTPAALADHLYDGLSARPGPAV

[10] = target: T8, AFACP, ACP of the FAS from Anabaena
T8 chain: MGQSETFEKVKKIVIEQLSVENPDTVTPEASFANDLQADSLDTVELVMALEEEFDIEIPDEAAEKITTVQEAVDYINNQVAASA

[11] = target: T9, APACP, ACP of the glycolipid PKS in Anabaena
T9 chain: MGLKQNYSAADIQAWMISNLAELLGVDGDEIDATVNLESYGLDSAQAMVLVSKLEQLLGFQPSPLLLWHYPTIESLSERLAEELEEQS

B1: MPPT, Sfp-like phosphopantetheinyl transferase (PPTase) from Microcystis aeruginosa NIES843 (protein)
chain: MFISTDEVHLYFISLDPSGDRLETLASLLSEDEIIRANRYHFPEHKRRFLVARGCLREILGSYLAISPEKIEFIYSERGKPSINYQLQFNLSHSEEMAICGLTLTARIGVDLEKMRQMKDLDSLTKRFFCAREHELVEKSAEKEKLFFQLWTAKEAYLKAVGTGISGGLDRVEVGLNPLKLDNVAGEWQLWTAAIGDNYRATVVIEGSDRVIKTFGLSDL
Protein B1 has a Km [1] of 9.5 µM, a kcat [1] of 0.0317 s⁻¹ and a kcat/Km [1] of 3330 M⁻¹ s⁻¹. The “phosphopantetheinylation of CP (apo to holo), LC-MS” value (shortened to “phosphopantetheinylation of CP”) [1] was “APPT, AvPPT, MPPT and Sfp functionalized all substrates”, the “relative activity (most active PPTase = 100%)” value [1] was “MPPT showed >84% relative activity toward all nine cyanobacterial CPs” and the Km [2] was 9.1 µM. For the same protein, the kcat [2] was 0.173 s⁻¹, the kcat/Km [2] was 18300 M⁻¹ s⁻¹ and the “phosphopantetheinylation of CP” value [2] was “APPT, AvPPT, MPPT and Sfp functionalized all substrates”. The “relative activity (most active PPTase = 100%)” value [2] was “MPPT showed >84% relative activity toward all nine cyanobacterial CPs”, the Km [3] was 4.9 µM and the kcat [3] was 0.07 s⁻¹. For the same protein, the kcat/Km [3] was 15000 M⁻¹ s⁻¹, the “phosphopantetheinylation of CP” value [3] was “APPT, AvPPT, MPPT and Sfp functionalized all substrates” and the “relative activity (most active PPTase = 100%)” value [3] was “MPPT showed >84% relative activity toward all nine cyanobacterial CPs including the highest activity on MACP”. For the same protein, the Km [4] was 3.2 µM, the “growth of Synechocystis mutant with the SPPT gene replaced” value [4] was “demonstrated their in vivo function as activating SFACP for the synthesis of essential fatty acids” and the kcat [4] was 0.02 s⁻¹. The kcat/Km [4] was 6670 M⁻¹ s⁻¹, the “phosphopantetheinylation of CP” value [4] was “APPT, AvPPT, MPPT and Sfp functionalized all substrates” and the “relative activity (most active PPTase = 100%)” value [4] was “MPPT showed >84% relative activity toward all nine cyanobacterial CPs”. It also gave a Km [5] of 7.2 µM, a kcat [5] of 0.16 s⁻¹ and a kcat/Km [5] of 21700 M⁻¹ s⁻¹. The “phosphopantetheinylation of CP” value [5] was “APPT, AvPPT, MPPT and Sfp functionalized all substrates”, the “relative activity (most active PPTase = 100%)” value [5] was “MPPT showed >84% relative activity toward all nine cyanobacterial CPs” and the Km [6] was 12.4 µM. The kcat [6] was 0.0433 s⁻¹, the kcat/Km [6] was 3330 M⁻¹ s⁻¹ and the “phosphopantetheinylation of CP” value [6] was “APPT, AvPPT, MPPT and Sfp functionalized all substrates”. The “relative activity (most active PPTase = 100%)” value [6] was “This enzyme also displayed a modest relative activity toward ScACP and SsPCP”, the Km [7] was 8.3 µM and the kcat [7] was 0.035 s⁻¹. The kcat/Km [7] was 5000 M⁻¹ s⁻¹, the “phosphopantetheinylation of CP” value [7] was “APPT, AvPPT, MPPT and Sfp functionalized all substrates” and the “relative activity (most active PPTase = 100%)” value [7] was “MPPT showed >84% relative activity toward all nine cyanobacterial CPs”. It also gave a Km [8] of 7.2 µM, a kcat [8] of 0.0317 s⁻¹ and a kcat/Km [8] of 5000 M⁻¹ s⁻¹. The “phosphopantetheinylation of CP” value [8] was “APPT, AvPPT, MPPT and Sfp functionalized all substrates”, the “relative activity (most active PPTase = 100%)” value [8] was “MPPT showed >84% relative activity toward all nine cyanobacterial CPs” and the Km [9] was 9.1 µM. For the same protein, the kcat [9] was 0.118 s⁻¹, the kcat/Km [9] was 11700 M⁻¹ s⁻¹ and the “phosphopantetheinylation of CP” value [9] was “APPT, AvPPT, MPPT and Sfp functionalized all substrates”. The “relative activity (most active PPTase = 100%)” value [9] was “This enzyme also displayed a modest relative activity toward ScACP and SsPCP”, the Km [10] was 6.9 µM and the kcat [10] was 0.14 s⁻¹. The kcat/Km [10] was 20000 M⁻¹ s⁻¹, the “phosphopantetheinylation of CP” value [10] was “APPT, AvPPT, MPPT and Sfp functionalized all substrates” and the “relative activity (most active PPTase = 100%)” value [10] was “MPPT showed >84% relative activity toward all nine cyanobacterial CPs”. For the same protein, the Km [11] was 23.1 µM, the kcat [11] was 0.353 s⁻¹ and the kcat/Km [11] was 15000 M⁻¹ s⁻¹. For the same protein, the “phosphopantetheinylation of CP” value [11] was “APPT, AvPPT, MPPT and Sfp functionalized all substrates” and the “relative activity (most active PPTase = 100%)” value [11] was “MPPT showed >84% relative activity toward all nine cyanobacterial CPs”.
